{"source": "patent US12290533B2", "about": "“Extracellular vesicles and methods of using” (NUtech Ventures, priority 2018, dated 2025)", "molecules": {"B1": {"name": "proteinase K: non-specific protease used to remove surface proteins of exosomes or cells (protein, UniProt P06873 106-384, looked up)", "Proteinase K": "AAQTNAPWGLARISSTSPGTSTYYYDESAGQGSCVYVIDTGIEASHPEFEGRAQMVKTYYYSSRDGNGHGTHCAGTVGSRTYGVAKKTQLFGVKVLDDNGSGQYSTIIAGMDFVASDKNNRNCPKGVVASLSLGGGYSSSVNSAAARLQSSGVMVAVAAGNNNADARNYSPASEPSVCTVGASDRYDRRSSFSNYGSVLDIFGPGTSILSTWIGGSTRSISGTSMATPHVAGLAAYLMTLGKTTAASACRYIADTANKGDLSNIPFGTVNLLAYNNYQA"}}, "system": "human umbilical vein endothelial cells (HUVEC)", "assay": "Uptake of fluorophore-labeled cow's milk exosomes into HUVECs", "type": "cell-based", "conditions": "exosomal surface proteins removed by proteinase K"}
{"molecule": "B1", "values": [{"measurement": "exosome uptake", "result": "~50 % of controls"}]}
